Measurements taken from PMC4682817, “The Cardiac Stress Response Factor Ms1 Can Bind to DNA and Has a Function in the Nucleus”.

Experiments:
[1] = biological target: T1, Ms1 270-375 (AT-hook + ABD2) (rat, UniProt Q8K4K7 270-375); test: fluorescence titration (intrinsic Trp); details: EMSA buffer: 20 mM phosphate, 100 mM NaCl, 0.01% Triton X-100, pH 7.5, room temperature; fluorescence and NMR buffers not given in the material
T1 sequence: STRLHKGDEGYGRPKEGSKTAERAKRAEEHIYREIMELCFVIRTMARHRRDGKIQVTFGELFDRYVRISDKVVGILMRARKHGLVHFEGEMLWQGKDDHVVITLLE

[2] = biological target: T1, Ms1 270-375 (AT-hook + ABD2); test: NMR titration; shifts in AT-hook only; 1:0.5 to 1:2; EMSA buffer: 20 mM phosphate, 100 mM NaCl, 0.01% Triton X-100, pH 7.5, room temperature; fluorescence and NMR buffers not given in the material; details: protein: recombinant; tags: N-terminal TEV-cleavable poly-His (pLEICS-07); self-complementary
[3] = biological target: T1, Ms1 270-375 (AT-hook + ABD2); test: fluorescence titration (intrinsic Trp); EMSA buffer: 20 mM phosphate, 100 mM NaCl, 0.01% Triton X-100, pH 7.5, room temperature; fluorescence and NMR buffers not given in the material; details: protein: recombinant; tags: N-terminal TEV-cleavable poly-His (pLEICS-07)

Molecule | Kd [3] [µM] | also measured
scrambled oligo | – | Kd [1]: 31 µM
AT-hook oligo (dsDNA) DNA 1: CGAATTAATTCG DNA 2: CGAATTAATTCG | – | binding result [2]: binds
A7G oligo (dsDNA) DNA 1: GACACAGACACAATAG DNA 2: CTATTGTGTCTGTGTC | 32 ± 5 | –
wt oligo (dsDNA) DNA 1: GACACAAACACAATAG DNA 2: CTATTGTGTTTGTGTC | 8.2 ± 1 | –
